Data from patent US20230365675A1 (published 2023).

B1: sdCD33_9 (VHH)
VHH: QVKLEESGGGLVRAGGSLRLSCAASGGTFSTYAMAWFRQAPGKEREFVAAITWGGGSTYYEDSVKGRFTISRDNAKNTGVLQMNNLDVDDTAVYYCYAFGRSRAGDANGDYWGQGTQVTVSS
notes: sdAb from a naive llama phage library; also called 426; sdAb426
B2: sdCD33_8 (VHH)
VHH: QVQLVESGGGLVQAGGSLRLSCAASGGAFSTYTMGWFRQAPGKEREFVAAIAWTGTHTYYSDSVKGRFTISRDNDKNTVFLQMNSLKPEDTAVYYCAQASSRYRAVTDSLSENHWGPGTQVTVST
notes: sdAb from a naive llama phage library; also called 424; sdAb424
B3: Anti-CD33 CAR 7 (other)
chain: MELGLSWVVLAALLQGVQAQVQLVQPGGSLRLFCVASEEFFSIYAMGWYRQAPGKQHEMVARFTRDGKITYADSAKGRFTITRDAKNTLNLQMNGLIPEDTAVYYCNINHYWGQGTQVTVSSAAATTTPAPRPPTPAPTIASQPLSLRPEACRPAAGGAVHTRGLDFACDIYIWAPLAGTCGVLLLSLVITLYCKRGRKKLLYIFKQPFMRPVQTTQEEDGCSCRFPEEEEGGCELRVKFSRSADAPAYQQGQNQLYNELNLGRREEYDVLDKRRGRDPEMGGKPRRKNPQEGLYNELQKDKMAEAYSEIGMKGERRRGKGHDGLYQGLSTATKDTYDALHMQALPPR
B4: Anti-CD33-CAR5 (other)
chain: QVKLEESGGGSVQAGESLRLSCTASGITFRDYDIDWYRQAPGKEREWLATITPSGTTHYPDSVKGRATISRDSAKNTVYLQMNSLKPEDTARYECNTLAYWGSGTQVTVSSAAATTTPAPRPPTPAPTIASQPLSLRPEACRPAAGGAVHTRGLDFACDIYIWAPLAGTCGVLLLSLVITLYCKRGRKKLLYIFKQPFMRPVQTTQEEDGCSCRFPEEEEGGCELRVKFSRSADAPAYQQGQNQLYNELNLGRREEYDVLDKRRGRDPEMGGKPRRKNPQEGLYNELQKDKMAEAYSEIGMKGERRRGKGHDGLYQGLSTATKDTYDALHMQALPPR
B5: sdCD33_7 (VHH)
VHH: EVQLVESGGGLVQPGGSLRLSCVASGFTFKDYGMTWVRQAPGKALEWVSDINSAGDGIYYSDSVKGRFTISRDDSKGTLYLQMNSLTPEDTAIYYCAAERQRAGDVKRSLAPITAHIWGQGTQVTVSS
notes: sdAb from a naive llama phage library; also called 420; sdAb420

Key:
[1] = target: CD33-GFP fusion protein, wild type (WT), on 293FT cells (UniProt P20138); test: FACS, WT CD33-GFP on 293FT cells
Chain of CD33-GFP fusion protein, wild type (WT), on 293FT cells (P20138 18-364): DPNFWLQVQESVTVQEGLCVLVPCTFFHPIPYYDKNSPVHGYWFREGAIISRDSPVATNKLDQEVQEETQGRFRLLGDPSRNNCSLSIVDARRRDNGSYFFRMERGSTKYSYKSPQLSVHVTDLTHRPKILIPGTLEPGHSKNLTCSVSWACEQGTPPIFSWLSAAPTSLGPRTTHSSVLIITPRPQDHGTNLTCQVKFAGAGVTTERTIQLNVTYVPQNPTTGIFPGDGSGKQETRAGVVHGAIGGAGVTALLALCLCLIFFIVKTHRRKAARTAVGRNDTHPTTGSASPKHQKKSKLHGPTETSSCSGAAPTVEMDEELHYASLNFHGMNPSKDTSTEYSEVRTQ

[2] = target: Mutant CD33-GFP JS23 (L23N) on 293FT cells (UniProt P20138); test: FACS, mutant CD33-GFP on 293FT cells
Chain of Mutant CD33-GFP JS23 (L23N) on 293FT cells (P20138 18-364 L23N): as the sequence (P20138 18-364) above, with L6N counted along it

[3] = target: Mutant CD33-GFP JS24 (Q24E) on 293FT cells (UniProt P20138); test: FACS, mutant CD33-GFP on 293FT cells
Chain of Mutant CD33-GFP JS24 (Q24E) on 293FT cells (P20138 18-364 Q24E): as the sequence (P20138 18-364) above, with Q7E counted along it

[4] = target: Mutant CD33-GFP JS25 (V25M) on 293FT cells (UniProt P20138); test: FACS, mutant CD33-GFP on 293FT cells
Chain of Mutant CD33-GFP JS25 (V25M) on 293FT cells (P20138 18-364 V25M): as the sequence (P20138 18-364) above, with V8M counted along it

[5] = target: Mutant CD33-GFP JS28 (S28L) on 293FT cells (UniProt P20138); test: FACS, mutant CD33-GFP on 293FT cells
Chain of Mutant CD33-GFP JS28 (S28L) on 293FT cells (P20138 18-364 S28L): as the sequence (P20138 18-364) above, with S11L counted along it

[6] = target: Mutant CD33-GFP M10 (Y127A) on 293FT cells (UniProt P20138); test: FACS, mutant CD33-GFP on 293FT cells
Chain of Mutant CD33-GFP M10 (Y127A) on 293FT cells (P20138 18-364 Y127A): as the sequence (P20138 18-364) above, with Y110A counted along it

[7] = target: Mutant CD33-GFP M11 (L78T) on 293FT cells (UniProt P20138); test: FACS, mutant CD33-GFP on 293FT cells
Chain of Mutant CD33-GFP M11 (L78T) on 293FT cells (P20138 18-364 L78T): as the sequence (P20138 18-364) above, with L61T counted along it

[8] = target: Mutant CD33-GFP M12 (G88S) on 293FT cells (UniProt P20138); test: FACS, mutant CD33-GFP on 293FT cells
Chain of Mutant CD33-GFP M12 (G88S) on 293FT cells (P20138 18-364 G88S): as the sequence (P20138 18-364) above, with G71S counted along it

[9] = target: Mutant CD33-GFP M13 (R91E) on 293FT cells (UniProt P20138); test: FACS, mutant CD33-GFP on 293FT cells
Chain of Mutant CD33-GFP M13 (R91E) on 293FT cells (P20138 18-364 R91E): as the sequence (P20138 18-364) above, with R74E counted along it

[10] = target: Mutant CD33-GFP M14 (E170R) on 293FT cells (UniProt P20138); test: FACS, mutant CD33-GFP on 293FT cells
Chain of Mutant CD33-GFP M14 (E170R) on 293FT cells (P20138 18-364 E170R): as the sequence (P20138 18-364) above, with E153R counted along it

[11] = target: Mutant CD33-GFP M15 (Q171A) on 293FT cells (UniProt P20138); test: FACS, mutant CD33-GFP on 293FT cells
Chain of Mutant CD33-GFP M15 (Q171A) on 293FT cells (P20138 18-364 Q171A): as the sequence (P20138 18-364) above, with Q154A counted along it

[12] = target: Mutant CD33-GFP M16 (4889AII) on 293FT cells (UniProt P20138); test: FACS, mutant CD33-GFP on 293FT cells
[13] = target: Mutant CD33-GFP M17 (F21Y) on 293FT cells (UniProt P20138); test: FACS, mutant CD33-GFP on 293FT cells
Chain of Mutant CD33-GFP M17 (F21Y) on 293FT cells (P20138 18-364 F21Y): as the sequence (P20138 18-364) above, with F4Y counted along it

[14] = target: Mutant CD33-GFP M18 (353AAL) on 293FT cells (UniProt P20138); test: FACS, mutant CD33-GFP on 293FT cells
[15] = target: Mutant CD33-GFP M19 (348ATAI) on 293FT cells (UniProt P20138); test: FACS, mutant CD33-GFP on 293FT cells
[16] = target: Mutant CD33-GFP M4 (R122D) on 293FT cells (UniProt P20138); test: FACS, mutant CD33-GFP on 293FT cells
Chain of Mutant CD33-GFP M4 (R122D) on 293FT cells (P20138 18-364 R122D): as the sequence (P20138 18-364) above, with R105D counted along it

[17] = target: Mutant CD33-GFP M5 (AEAD), quadruple mutant, on 293FT cells (UniProt P20138); test: FACS, mutant CD33-GFP on 293FT cells
Chain of Mutant CD33-GFP M5 (AEAD), quadruple mutant, on 293FT cells (P20138 other isoform, or with tags, fused parts or gaps mutant): as the sequence (P20138 18-364) above, with W5A, H28E, N82A, R105D counted along it

[18] = target: Mutant CD33-GFP M9 (Y49, 50A) on 293FT cells (UniProt P20138); test: FACS, mutant CD33-GFP on 293FT cells
Chain of Mutant CD33-GFP M9 (Y49, 50A) on 293FT cells (P20138 other isoform, or with tags, fused parts or gaps mutant): as the sequence (P20138 18-364) above, with Y32A, Y33A counted along it

[19] = target: Mutant CD33-GFP N20D on 293FT cells (UniProt P20138); test: FACS, mutant CD33-GFP on 293FT cells
Chain of Mutant CD33-GFP N20D on 293FT cells (P20138 18-364 N20D): as the sequence (P20138 18-364) above, with N3D counted along it

[20] = target: T1, Mutant CD33-GFP M1 (W22A) on 293FT cells (UniProt P20138 18-364); test: FACS, mutant CD33-GFP on 293FT cells
T1 construct: whole, on cells; not shown: GFP fused to CD33
T1 sequence (P20138 18-364 W22A): as the sequence (P20138 18-364) above, with W5A counted along it

[21] = target: T2, Mutant CD33-GFP M2 (H45E) on 293FT cells (UniProt P20138 18-364); test: FACS, mutant CD33-GFP on 293FT cells
T2 construct: whole, on cells; not shown: GFP fused to CD33
T2 sequence (P20138 18-364 H45E): as the sequence (P20138 18-364) above, with H28E counted along it

[22] = target: T3, Mutant CD33-GFP M3 (N99A) on 293FT cells (UniProt P20138 18-364); test: FACS, mutant CD33-GFP on 293FT cells
T3 construct: whole, on cells; not shown: GFP fused to CD33
T3 sequence (P20138 18-364 N99A): as the sequence (P20138 18-364) above, with N82A counted along it

[23] = target: T4, Mutant CD33-GFP M6 (F43N) on 293FT cells (UniProt P20138 18-364); test: FACS, mutant CD33-GFP on 293FT cells
T4 construct: whole, on cells; not shown: GFP fused to CD33
T4 sequence (P20138 18-364 F43N): as the sequence (P20138 18-364) above, with F26N counted along it

[24] = target: T5, Mutant CD33-GFP M7 (R98D) on 293FT cells (UniProt P20138 18-364); test: FACS, mutant CD33-GFP on 293FT cells
T5 construct: whole, on cells; not shown: GFP fused to CD33
T5 sequence (P20138 18-364 R98D): as the sequence (P20138 18-364) above, with R81D counted along it

[25] = target: T6, Mutant CD33-GFP M8 (K52A) on 293FT cells (UniProt P20138 18-364); test: FACS, mutant CD33-GFP on 293FT cells
T6 construct: whole, on cells; not shown: GFP fused to CD33
T6 sequence (P20138 18-364 K52A): as the sequence (P20138 18-364) above, with K35A counted along it

[26] = target: Biotinylated CD33 protein (UniProt P20138); test: Octet competition on biotinylated CD33; competitor 348
Chain of Biotinylated CD33 protein (P20138 18-259 limits assumed): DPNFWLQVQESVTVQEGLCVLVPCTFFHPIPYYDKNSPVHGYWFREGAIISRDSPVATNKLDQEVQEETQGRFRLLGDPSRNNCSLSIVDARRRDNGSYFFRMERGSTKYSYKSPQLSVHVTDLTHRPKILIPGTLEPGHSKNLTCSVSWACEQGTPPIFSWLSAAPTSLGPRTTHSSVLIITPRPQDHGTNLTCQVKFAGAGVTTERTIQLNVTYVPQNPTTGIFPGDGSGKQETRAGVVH

[27] = target: Biotinylated CD33 protein (UniProt P20138); test: Octet competition on biotinylated CD33; competitor 353
[28] = target: Biotinylated CD33 protein (UniProt P20138); test: Octet competition on biotinylated CD33; competitor 389
[29] = target: Biotinylated CD33 protein (UniProt P20138); test: Octet competition on biotinylated CD33; competitor 413
[30] = target: Biotinylated CD33 protein (UniProt P20138); test: Octet competition on biotinylated CD33; competitor 416
[31] = target: Biotinylated CD33 protein (UniProt P20138); test: Octet competition on biotinylated CD33; competitor 420
[32] = target: Biotinylated CD33 protein (UniProt P20138); test: Octet competition on biotinylated CD33; competitor 424
[33] = target: Biotinylated CD33 protein (UniProt P20138); test: Octet competition on biotinylated CD33; competitor 429
[34] = target: Biotinylated CD33 protein (UniProt P20138); test: Octet competition on biotinylated CD33; competitor 430
[35] = target: Biotinylated CD33 protein (UniProt P20138); test: Octet competition on biotinylated CD33; competitor h195
CD33 on MOLM-13 cells [36] = target: T7, CD33 on MOLM-13 cells (human, UniProt P20138 18-364); test: FACS, MOLM-13 cells expressing CD33 against MOLM-13 CD33 knockout
T7 construct: whole, on cells; also called MOLM-13 cell line expressing CD33; wild-type MOLM-13 cells (CD33+)
T7 sequence (P20138 18-364): as the sequence (P20138 18-364) above
Excerpt: A naïve llama phage library was panned and screened to identify single domain antibodies that specifically recognize CD33. A MOLM-13 cell line expressing CD33 was used as a CD33-positive cell line, and a MOLM-13 cell line harboring a knockout of CD33 was used as a CD-33 negative cell line. A purified anti-human CD33 antibody was used as a positive control. Specific binding activity of identified binders was confirmed by FACS. The heavy chain variable region sequences of the identified binders are included herein.

[37] = target: Biotinylated CD33 protein (UniProt P20138); test: Octet competition on biotinylated CD33; competitor 426
CD33 on MOLM-13 cells [38] = target: T7, CD33 on MOLM-13 cells; test: cell-based or functional assay

Binder | FACS binding data [1] | FACS binding data [2] | FACS binding data [3] | FACS binding data [4] | FACS binding data [5] | FACS binding data [6] | FACS binding data [7] | FACS binding data [8] | FACS binding data [9] | FACS binding data [10] | FACS binding data [11] | FACS binding data [12] | FACS binding data [13] | FACS binding data [14] | FACS binding data [15] | FACS binding data [16] | FACS binding data [17] | FACS binding data [18] | FACS binding data [19] | FACS binding data [20] | further results
B1 | 99.2 | 99.2 | 99.4 | 99.7 | 99.7 | 96.1 | 77.8 | 99.2 | 99.3 | 99.2 | 99.3 | 99 | 99.1 | 99.3 | 99.8 | 95.9 | 1.2 | 1.25 | 99.1 | 99.5 | FACS binding data [21]: 97.7; FACS binding data [22]: 99.5; FACS binding data [23]: 99.2; FACS binding data [24]: 99.1; FACS binding data [25]: 96.8; Octet signal [26]: 0.183; Octet signal [27]: 0.259; Octet signal [28]: 0.53; Octet signal [29]: 0.257; Octet signal [30]: 0.304; Octet signal [31]: 0.191; Octet signal [32]: 0.0441; Octet signal [33]: 0.0225; Octet signal [34]: 0.538; Octet signal [35]: 0.743; binding result (CD33 on MOLM-13 cells [36]): binds
B2 | 98.6 | 97.8 | 99.4 | 99.6 | 99.6 | 83.7 | 65.9 | 98.8 | 99.1 | 98.8 | 98.7 | 98.5 | 99 | 70.2 | 99.5 | 98.6 | 0.07 | 0.23 | 98.3 | 80.1 | FACS binding data [21]: 97.3; FACS binding data [22]: 3.43; FACS binding data [23]: 98.6; FACS binding data [24]: 97.2; FACS binding data [25]: 95.4; Octet signal [26]: 0.154; Octet signal [27]: 0.444; Octet signal [28]: 0.356; Octet signal [29]: 0.37; Octet signal [30]: 0.086; Octet signal [31]: 0.266; Octet signal [37]: 0.239; Octet signal [33]: 0.163; Octet signal [34]: 0.733; Octet signal [35]: 0.648; binding result (CD33 on MOLM-13 cells [36]): binds
B3 | – | – | – | – | – | – | – | – | – | – | – | – | – | – | – | – | – | – | – | – | Ratio (CD33 on MOLM-13 cells [38]): 1.98; Testing FP2 Expression (CD33+) (CD33 on MOLM-13 cells [38]): 17.6 % of constitutive-fluorescence-positive cells
B4 | – | – | – | – | – | – | – | – | – | – | – | – | – | – | – | – | – | – | – | – | Ratio (CD33 on MOLM-13 cells [38]): 8.5; Testing FP2 Expression (CD33+) (CD33 on MOLM-13 cells [38]): 28.2 % of constitutive-fluorescence-positive cells
B5 | 98.6 | 98.7 | 99.1 | 99.5 | 99.6 | 98.1 | 72.4 | 98.7 | 98.8 | 98.7 | 98.9 | 98.5 | 99.1 | 99.1 | 99.4 | 97.8 | 0.15 | 34.6 | 99.1 | 98.4 | FACS binding data [21]: 91.5; FACS binding data [22]: 98.9; FACS binding data [23]: 98.3; FACS binding data [24]: 74.8; FACS binding data [25]: 8.64; Octet signal [26]: 0.139; Octet signal [27]: 0.183; Octet signal [28]: 0.376; Octet signal [29]: 0.2; Octet signal [30]: -0.094; Octet signal [32]: -0.0931; Octet signal [37]: 0.0276; Octet signal [33]: -0.124; Octet signal [34]: 0.457; Octet signal [35]: 0.579; binding result (CD33 on MOLM-13 cells [36]): binds
